US20180155451A1 (published 2018)

T1: FcγRIIb extracellular domain with C-terminal His tag (human, UniProt P31994 43-217)
T1 construct: extracellular domain; Expressed in FreeStyle293 cells; used as analyte in Biacore; also called FcgRIIb; 2b; not shown: C-terminal His tag
T1 sequence (looked up): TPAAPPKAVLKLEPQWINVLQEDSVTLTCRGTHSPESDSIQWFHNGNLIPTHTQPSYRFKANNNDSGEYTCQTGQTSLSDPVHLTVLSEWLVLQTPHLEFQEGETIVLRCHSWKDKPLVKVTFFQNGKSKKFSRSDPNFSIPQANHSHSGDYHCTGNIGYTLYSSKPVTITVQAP

T2: FcγRIIb (human, UniProt P31994 43-217)
T2 construct: extracellular domain; also called 2b
T2 sequence (looked up): T1 sequence (looked up)

T3: FcγRIIa H (human, UniProt P12318 34-217)
T3 construct: extracellular domain; also called FcγRIIa type H; 2aH
T3 sequence (looked up): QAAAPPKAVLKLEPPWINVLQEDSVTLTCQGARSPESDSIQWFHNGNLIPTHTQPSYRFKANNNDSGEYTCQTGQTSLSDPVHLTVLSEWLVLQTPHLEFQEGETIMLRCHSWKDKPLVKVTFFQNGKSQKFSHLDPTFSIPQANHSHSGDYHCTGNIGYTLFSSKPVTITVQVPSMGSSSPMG

B1: GpH7-B3 variant K334_15Y/GpL16-k0 (Ho Ab) (antibody, human IgG1, kappa)
heavy: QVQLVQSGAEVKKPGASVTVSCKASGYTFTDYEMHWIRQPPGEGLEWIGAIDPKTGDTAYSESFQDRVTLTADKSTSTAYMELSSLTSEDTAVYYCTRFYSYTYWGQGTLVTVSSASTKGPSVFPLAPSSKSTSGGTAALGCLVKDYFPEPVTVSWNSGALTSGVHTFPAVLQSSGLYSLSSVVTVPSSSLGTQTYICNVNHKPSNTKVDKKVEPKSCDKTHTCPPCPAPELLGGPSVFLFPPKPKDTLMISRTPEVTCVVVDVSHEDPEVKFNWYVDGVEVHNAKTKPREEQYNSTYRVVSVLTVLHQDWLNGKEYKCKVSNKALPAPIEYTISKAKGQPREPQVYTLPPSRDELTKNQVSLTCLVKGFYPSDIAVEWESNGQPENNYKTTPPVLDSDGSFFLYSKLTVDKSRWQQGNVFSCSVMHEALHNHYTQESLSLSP
light: DIVMTQSPLSLPVTPGEPASISCQASESLVHSNRNTYLHWYLQKPGQSPQLLIYKVSNRFSGVPDRFSGSGSGTDFTLKISRVEAEDVGVYYCSQNTHVPPTFGQGTKVEIERTVAAPSVFIFPPSDEQLKSGTASVVCLLNNFYPREAKVQWKVDNALQSGNSQESVTEQDSKDSTYSLSSTLTLSKADYEKHKVYACEVTHQGLSSPVTKSFNRGEC
notes: Substitution in both H chains; position in EU numbering; also called K334Y homodimerized antibody
B2: GpH7-A5/GpH7-B3 variant V266_19Q/GpL16-k0 (antibody, human IgG1, kappa)
heavy 1: not shown
heavy 2: not shown
light: B1 light
notes: heterodimerized IgG1, mutation in one H chain only; also called He Ab
B3: GpH7-B3 variant S239_18N/GpL16-k0 (Ho Ab) (antibody, human IgG1, kappa)
heavy: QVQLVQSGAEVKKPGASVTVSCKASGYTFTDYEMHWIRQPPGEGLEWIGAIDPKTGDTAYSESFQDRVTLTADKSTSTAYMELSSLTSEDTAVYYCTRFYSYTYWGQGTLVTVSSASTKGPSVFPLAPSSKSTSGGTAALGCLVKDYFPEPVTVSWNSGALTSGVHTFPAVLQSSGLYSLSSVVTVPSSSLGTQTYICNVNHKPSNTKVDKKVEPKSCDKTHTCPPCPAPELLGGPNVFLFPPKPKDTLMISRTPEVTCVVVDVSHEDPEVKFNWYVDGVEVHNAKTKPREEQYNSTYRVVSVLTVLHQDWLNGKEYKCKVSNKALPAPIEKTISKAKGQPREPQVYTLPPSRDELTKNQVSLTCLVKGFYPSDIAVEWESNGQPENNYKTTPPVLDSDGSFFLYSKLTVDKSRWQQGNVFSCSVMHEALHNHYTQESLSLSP
light: B1 light
notes: Substitution in both H chains; position in EU numbering; also called S239N homodimerized antibody
B4: GpH7-B3 variant L328_14T/GpL16-k0 (Ho Ab) (antibody, human IgG1, kappa)
heavy: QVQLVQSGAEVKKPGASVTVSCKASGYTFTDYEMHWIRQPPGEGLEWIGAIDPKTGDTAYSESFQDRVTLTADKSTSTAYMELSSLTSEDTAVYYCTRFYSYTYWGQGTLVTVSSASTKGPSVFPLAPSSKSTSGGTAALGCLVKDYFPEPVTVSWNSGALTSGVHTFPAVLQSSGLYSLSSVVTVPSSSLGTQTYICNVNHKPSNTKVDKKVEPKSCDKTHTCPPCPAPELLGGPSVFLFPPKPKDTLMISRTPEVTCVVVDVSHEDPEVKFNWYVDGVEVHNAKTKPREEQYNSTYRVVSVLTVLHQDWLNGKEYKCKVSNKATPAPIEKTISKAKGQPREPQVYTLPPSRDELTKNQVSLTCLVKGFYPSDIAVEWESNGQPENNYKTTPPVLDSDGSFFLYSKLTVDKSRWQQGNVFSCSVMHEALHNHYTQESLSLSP
light: B1 light
notes: Substitution in both H chains; position in EU numbering; also called L328T homodimerized antibody
B5: GpH7-A5/GpH7-B3 variant S267_05P/GpL16-k0 (antibody, human IgG1, kappa)
heavy 1: not shown
heavy 2: not shown
light: B1 light
notes: as for B2
B6: GpH7-B3 variant S239_09D/GpL16-k0 (Ho Ab) (antibody, human IgG1, kappa)
heavy: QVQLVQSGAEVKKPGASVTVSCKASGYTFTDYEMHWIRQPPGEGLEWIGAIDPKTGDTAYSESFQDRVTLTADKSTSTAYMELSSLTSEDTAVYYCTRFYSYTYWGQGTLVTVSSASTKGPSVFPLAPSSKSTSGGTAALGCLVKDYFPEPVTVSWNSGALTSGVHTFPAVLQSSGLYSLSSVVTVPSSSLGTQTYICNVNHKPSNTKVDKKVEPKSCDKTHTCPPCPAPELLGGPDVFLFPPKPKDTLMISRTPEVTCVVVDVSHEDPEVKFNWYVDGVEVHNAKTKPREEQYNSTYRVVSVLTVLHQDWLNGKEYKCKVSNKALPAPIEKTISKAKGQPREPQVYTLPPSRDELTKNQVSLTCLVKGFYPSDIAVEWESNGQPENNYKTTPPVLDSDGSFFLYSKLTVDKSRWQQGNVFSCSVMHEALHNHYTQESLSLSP
light: B1 light
notes: Substitution in both H chains; position in EU numbering; also called S239D homodimerized antibody
B7: GpH7-B3 variant L328_06M/GpL16-k0 (Ho Ab) (antibody, human IgG1, kappa)
heavy: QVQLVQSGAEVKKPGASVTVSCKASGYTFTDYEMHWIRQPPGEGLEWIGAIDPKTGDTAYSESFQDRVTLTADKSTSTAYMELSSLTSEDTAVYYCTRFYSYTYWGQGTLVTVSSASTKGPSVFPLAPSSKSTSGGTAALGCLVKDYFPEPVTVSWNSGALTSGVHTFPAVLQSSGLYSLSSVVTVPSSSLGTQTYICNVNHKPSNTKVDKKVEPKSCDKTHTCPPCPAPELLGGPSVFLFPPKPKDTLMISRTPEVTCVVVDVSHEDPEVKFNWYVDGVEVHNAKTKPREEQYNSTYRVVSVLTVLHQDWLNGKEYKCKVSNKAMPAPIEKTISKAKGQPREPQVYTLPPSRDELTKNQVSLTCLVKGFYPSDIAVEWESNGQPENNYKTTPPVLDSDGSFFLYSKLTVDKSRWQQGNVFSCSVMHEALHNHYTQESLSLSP
light: B1 light
notes: Substitution in both H chains; position in EU numbering; also called L328M homodimerized antibody
B8: GpH7-A5/GpH7-B3 variant V266_16H/GpL16-k0 (antibody, human IgG1, kappa)
heavy 1: not shown
heavy 2: not shown
light: B1 light
notes: as for B2
B9: GpH7-A5/GpH7-B3 variant S267_06M/GpL16-k0 (antibody, human IgG1, kappa)
heavy 1: not shown
heavy 2: not shown
light: B1 light
notes: as for B2
B10: GpH7-B3 variant P238_08L/GpL16-k0 (Ho Ab) (antibody, human IgG1, kappa)
heavy: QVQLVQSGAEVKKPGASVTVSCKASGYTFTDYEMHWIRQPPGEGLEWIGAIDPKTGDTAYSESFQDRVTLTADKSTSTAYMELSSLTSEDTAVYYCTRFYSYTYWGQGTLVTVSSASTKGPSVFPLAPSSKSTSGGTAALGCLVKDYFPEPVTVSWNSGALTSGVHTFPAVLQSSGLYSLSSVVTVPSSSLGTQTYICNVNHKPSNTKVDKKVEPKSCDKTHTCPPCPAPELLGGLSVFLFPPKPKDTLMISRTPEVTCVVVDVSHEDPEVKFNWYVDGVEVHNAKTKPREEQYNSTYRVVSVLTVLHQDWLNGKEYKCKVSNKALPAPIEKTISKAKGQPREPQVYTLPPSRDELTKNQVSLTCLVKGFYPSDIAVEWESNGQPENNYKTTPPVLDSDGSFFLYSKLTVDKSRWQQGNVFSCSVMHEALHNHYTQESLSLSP
light: B1 light
notes: Substitution in both H chains; position in EU numbering; also called P238L homodimerized antibody
B11: GpH7-A5/GpH7-B3 variant S267_16H/GpL16-k0 (antibody, human IgG1, kappa)
heavy 1: not shown
heavy 2: not shown
light: B1 light
notes: as for B2
B12: GpH7-A5/GpH7-B3 variant S267_19Q/GpL16-k0 (antibody, human IgG1, kappa)
heavy 1: not shown
heavy 2: not shown
light: B1 light
notes: as for B2
B13: GpH7-B3 variant L328_19Q/GpL16-k0 (Ho Ab) (antibody, human IgG1, kappa)
heavy: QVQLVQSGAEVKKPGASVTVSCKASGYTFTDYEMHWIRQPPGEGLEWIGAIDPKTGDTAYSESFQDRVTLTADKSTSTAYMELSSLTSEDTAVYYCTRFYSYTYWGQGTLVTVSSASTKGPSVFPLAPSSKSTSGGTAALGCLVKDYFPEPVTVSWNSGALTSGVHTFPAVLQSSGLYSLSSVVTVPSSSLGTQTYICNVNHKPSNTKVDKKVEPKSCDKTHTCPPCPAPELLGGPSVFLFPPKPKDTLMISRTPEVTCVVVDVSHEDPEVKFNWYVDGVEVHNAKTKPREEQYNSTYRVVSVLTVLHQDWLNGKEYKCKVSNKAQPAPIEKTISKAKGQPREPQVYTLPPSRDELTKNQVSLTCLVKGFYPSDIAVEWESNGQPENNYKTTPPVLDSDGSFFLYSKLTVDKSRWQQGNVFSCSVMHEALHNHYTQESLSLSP
light: B1 light
notes: Substitution in both H chains; position in EU numbering; also called L328Q homodimerized antibody
B14: GpH7-B3 variant P271_01G/GpL16-k0 (Ho Ab) (antibody, human IgG1, kappa)
heavy: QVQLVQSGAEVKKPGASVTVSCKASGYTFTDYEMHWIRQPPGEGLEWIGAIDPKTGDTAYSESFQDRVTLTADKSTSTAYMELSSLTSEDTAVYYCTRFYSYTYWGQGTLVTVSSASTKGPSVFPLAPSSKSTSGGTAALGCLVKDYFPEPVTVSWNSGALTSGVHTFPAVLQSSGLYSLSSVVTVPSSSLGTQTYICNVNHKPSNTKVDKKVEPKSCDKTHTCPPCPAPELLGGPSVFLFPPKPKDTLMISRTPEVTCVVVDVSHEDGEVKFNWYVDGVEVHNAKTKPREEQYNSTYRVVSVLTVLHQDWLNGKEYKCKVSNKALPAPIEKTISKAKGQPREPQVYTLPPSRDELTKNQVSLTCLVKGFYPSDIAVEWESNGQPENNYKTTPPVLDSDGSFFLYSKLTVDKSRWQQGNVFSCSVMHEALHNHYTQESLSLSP
light: B1 light
notes: Substitution in both H chains; position in EU numbering; also called P271G homodimerized antibody
B15: GpH7-B3 variant S239_08L/GpL16-k0 (Ho Ab) (antibody, human IgG1, kappa)
heavy: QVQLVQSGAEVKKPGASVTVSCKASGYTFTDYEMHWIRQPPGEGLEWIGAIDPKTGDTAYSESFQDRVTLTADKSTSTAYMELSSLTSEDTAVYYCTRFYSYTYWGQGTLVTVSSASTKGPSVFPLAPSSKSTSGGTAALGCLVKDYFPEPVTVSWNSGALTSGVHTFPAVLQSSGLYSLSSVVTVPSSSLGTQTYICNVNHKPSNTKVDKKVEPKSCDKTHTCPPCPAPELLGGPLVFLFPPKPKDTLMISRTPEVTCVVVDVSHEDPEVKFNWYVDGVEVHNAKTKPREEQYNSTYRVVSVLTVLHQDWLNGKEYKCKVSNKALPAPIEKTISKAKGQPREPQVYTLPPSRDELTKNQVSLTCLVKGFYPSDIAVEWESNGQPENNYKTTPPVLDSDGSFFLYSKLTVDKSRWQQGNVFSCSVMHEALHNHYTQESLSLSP
light: B1 light
notes: Substitution in both H chains; position in EU numbering; also called S239L homodimerized antibody
B16: GpH7-B3 variant L328_15Y/GpL16-k0 (Ho Ab) (antibody, human IgG1, kappa)
heavy: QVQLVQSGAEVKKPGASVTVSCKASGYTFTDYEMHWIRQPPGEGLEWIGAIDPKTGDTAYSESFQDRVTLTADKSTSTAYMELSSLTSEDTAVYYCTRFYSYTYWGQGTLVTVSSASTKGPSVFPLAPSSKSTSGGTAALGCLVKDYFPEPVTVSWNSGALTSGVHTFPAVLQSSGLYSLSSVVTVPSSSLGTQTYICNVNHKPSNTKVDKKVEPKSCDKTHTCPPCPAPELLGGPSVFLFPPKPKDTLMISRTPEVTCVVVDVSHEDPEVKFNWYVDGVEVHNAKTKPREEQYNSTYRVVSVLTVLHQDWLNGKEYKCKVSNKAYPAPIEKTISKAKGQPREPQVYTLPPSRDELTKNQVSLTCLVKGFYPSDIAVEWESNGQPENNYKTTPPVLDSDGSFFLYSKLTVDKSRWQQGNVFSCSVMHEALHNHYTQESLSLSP
light: B1 light
notes: Substitution in both H chains; position in EU numbering; also called L328Y homodimerized antibody
B17: GpH7-A5/GpH7-B3 variant S267_08L/GpL16-k0 (antibody, human IgG1, kappa)
heavy 1: not shown
heavy 2: not shown
light: B1 light
notes: as for B2
B18: GpH7-A5/GpH7-B3 variant S267_07I/GpL16-k0 (antibody, human IgG1, kappa)
heavy 1: not shown
heavy 2: not shown
light: B1 light
notes: as for B2
B19: GpH7-A5/GpH7-B3 variant S267_03V/GpL16-k0 (antibody, human IgG1, kappa)
heavy 1: not shown
heavy 2: not shown
light: B1 light
notes: as for B2
B20: GpH7-B3 variant K334_19Q/GpL16-k0 (Ho Ab) (antibody, human IgG1, kappa)
heavy: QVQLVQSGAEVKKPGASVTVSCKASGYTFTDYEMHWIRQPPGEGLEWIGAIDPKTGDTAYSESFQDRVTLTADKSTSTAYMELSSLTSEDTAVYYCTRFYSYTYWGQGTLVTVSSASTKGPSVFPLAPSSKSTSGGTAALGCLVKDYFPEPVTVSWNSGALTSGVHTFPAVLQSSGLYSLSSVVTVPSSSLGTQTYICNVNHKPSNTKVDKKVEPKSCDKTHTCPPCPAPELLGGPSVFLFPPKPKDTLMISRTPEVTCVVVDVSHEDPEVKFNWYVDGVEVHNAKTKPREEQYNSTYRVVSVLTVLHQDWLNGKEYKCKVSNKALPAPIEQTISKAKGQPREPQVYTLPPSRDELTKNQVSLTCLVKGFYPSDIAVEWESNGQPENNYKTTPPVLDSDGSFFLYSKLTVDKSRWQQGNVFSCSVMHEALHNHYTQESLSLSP
light: B1 light
notes: Substitution in both H chains; position in EU numbering; also called K334Q homodimerized antibody
B21: GpH7-A5/GpH7-B3 variant S267_04F/GpL16-k0 (antibody, human IgG1, kappa)
heavy 1: not shown
heavy 2: not shown
light: B1 light
notes: as for B2

Key:
[1] = biological target: T1, FcγRIIb extracellular domain with …; experiment: SPR (Biacore), antibody captured on antigen-peptide chip, FcgRIIb as analyte; binding relative to GpH7-B3/GpL16-k0 (HoCon Ab) = 100
FcγRIIb = biological target: T2, FcγRIIb; experiment: SPR (Biacore), relative binding vs GpH7-A5/GpH7-B3/GpL16-k0
FcγRIIa H [2] = biological target: T3, FcγRIIa H; experiment: as above
FcγRIIa H [3] = biological target: T3, FcγRIIa H; experiment: SPR; He/Con_2aH divided by He/Con_2b (FcγRIIb)
Protocol: The heterodimerized antibodies He Abs in which one of the H chains was introduced with an alteration were assayed for their binding activities to each activating FcγR and inhibitory FcγR according to the method described in Example 4. […] The activating FcγRs in FIGS. 26, 27, 28, and 29 are FcγRIa, FcγRIIa (R), FcγRIIa (H), and FcγRIIIa, respectively.
Analysis of interaction between objective antibody and the FcγR was carried out using Biacore T100 (GE Healthcare). HBS-EP+ (GE Healthcare) was used as the running buffer, and the measurement temperature was set to 25° C. Chips produced by immobilizing the antigen peptide by the amine coupling method to a Series S Sencor Chip CM5 (GE Healthcare), or alternatively, chips produced by allowing preliminarily biotinylated antigen peptides to interact with and immobilize onto a Series S Sensor Chip SA (certified) (GE Healthcare) were used. Antibodies of interest were captured onto an antigen peptide-immobilized chip, and allowed to interact to each FcγR diluted with running buffer. To regenerate and repeatedly use the chip, the antibodies captured on the chip were washed off by reacting 10 mM glycine-HCl, pH 1.5.

Binder	Ho/Con_2b [1]	He/Con_2b (FcγRIIb)	He/Con_2aH (FcγRIIa H [2])	He_2aH/2b (IIaH/IIb) (FcγRIIa H [3]) [ratio]
B1	126 % of control	–	–	–
B2	–	89.2 % of control He Ab (=100)	46.4 % of control He Ab (=100)	0.52
B3	125 % of control	–	–	–
B4	146 % of control	–	–	–
B5	–	31.5 % of control He Ab (=100)	25.1 % of control He Ab (=100)	0.8
B6	224 % of control	–	–	–
B7	171 % of control	–	–	–
B8	–	57.2 % of control He Ab (=100)	21.2 % of control He Ab (=100)	0.37
B9	–	210 % of control He Ab (=100)	34.3 % of control He Ab (=100)	0.16
B10	235 % of control	–	–	–
B11	–	65.9 % of control He Ab (=100)	29.8 % of control He Ab (=100)	0.45
B12	–	218 % of control He Ab (=100)	61.3 % of control He Ab (=100)	0.28
B13	111 % of control	–	–	–
B14	229 % of control	–	–	–
B15	142 % of control	–	–	–
B16	272 % of control	–	–	–
B17	–	109 % of control He Ab (=100)	29 % of control He Ab (=100)	0.27
B18	–	192 % of control He Ab (=100)	34.7 % of control He Ab (=100)	0.18
B19	–	192 % of control He Ab (=100)	50.8 % of control He Ab (=100)	0.26
B20	117 % of control	–	–	–
B21	–	48 % of control He Ab (=100)	22.7 % of control He Ab (=100)	0.47
